Columns and labels:
ARPC1B (human) = ARPC1B (human) (UniProt O15143); test: co-IP with IgG control, lysate of N-FLAG B3GNT2 cells, mass spectrometry
COPA (human) = COPA (human) (UniProt P53621); test: as above
CPT1A (human) = CPT1A (human) (UniProt P50416); test: as above
DDX17 (human) = DDX17 (human) (UniProt Q92841); test: as above
DDX3X (human) = DDX3X (human) (UniProt O00571); test: as above
HNRNPH1 (human) = HNRNPH1 (human) (UniProt P31943); test: as above
LUC7L3 (human) = LUC7L3 (human) (UniProt O95232); test: as above
MMP14 (human) = MMP14 (human) (UniProt P50281); test: as above
NAP1L1 (human) = NAP1L1 (human) (UniProt P55209); test: as above
PLOD1 (human) = PLOD1 (human) (UniProt Q02809); test: as above
PRRC2C (human) = PRRC2C (human) (UniProt Q9Y520); test: as above
PSMA3 (human) = PSMA3 (human) (UniProt P25788); test: as above
PSMA3 (human), sequence (P25788 2-255 limits assumed): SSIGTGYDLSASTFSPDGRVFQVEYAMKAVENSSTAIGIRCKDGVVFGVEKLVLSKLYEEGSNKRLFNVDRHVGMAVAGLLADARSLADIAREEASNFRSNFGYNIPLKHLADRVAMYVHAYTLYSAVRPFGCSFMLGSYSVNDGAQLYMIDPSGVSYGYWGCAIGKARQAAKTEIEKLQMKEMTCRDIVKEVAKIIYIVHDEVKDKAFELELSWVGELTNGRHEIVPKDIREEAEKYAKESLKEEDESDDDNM

PSMB5 (human) = PSMB5 (human) (UniProt P28074); test: as above
PUF60 (human) = PUF60 (human) (UniProt Q9UHX1); test: as above
PURA (human) = PURA (human) (UniProt Q00577); test: as above
PURA (human), sequence (Q00577 2-322 limits assumed): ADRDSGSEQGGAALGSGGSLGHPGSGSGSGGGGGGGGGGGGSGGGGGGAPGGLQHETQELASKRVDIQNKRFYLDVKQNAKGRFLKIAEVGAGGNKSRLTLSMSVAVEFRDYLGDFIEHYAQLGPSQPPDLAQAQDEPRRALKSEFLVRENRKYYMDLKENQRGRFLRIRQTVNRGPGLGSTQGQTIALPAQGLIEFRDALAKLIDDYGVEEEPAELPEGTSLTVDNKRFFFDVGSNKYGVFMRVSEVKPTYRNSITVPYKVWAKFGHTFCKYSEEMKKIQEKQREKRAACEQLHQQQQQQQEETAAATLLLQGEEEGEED

RBM14 (human) = RBM14 (human) (UniProt Q96PK6); test: as above
RPL6 (human) = RPL6 (human) (UniProt Q02878); test: as above
RPL7A (human) = RPL7A (human) (UniProt P62424); test: as above
SPARC (human) = SPARC (human) (UniProt P09486); test: as above
TM9SF1 (human) = TM9SF1 (human) (UniProt O15321); test: as above
TM9SF1 (human), sequence (O15321 other isoform, or with tags, fused parts or gaps limits assumed): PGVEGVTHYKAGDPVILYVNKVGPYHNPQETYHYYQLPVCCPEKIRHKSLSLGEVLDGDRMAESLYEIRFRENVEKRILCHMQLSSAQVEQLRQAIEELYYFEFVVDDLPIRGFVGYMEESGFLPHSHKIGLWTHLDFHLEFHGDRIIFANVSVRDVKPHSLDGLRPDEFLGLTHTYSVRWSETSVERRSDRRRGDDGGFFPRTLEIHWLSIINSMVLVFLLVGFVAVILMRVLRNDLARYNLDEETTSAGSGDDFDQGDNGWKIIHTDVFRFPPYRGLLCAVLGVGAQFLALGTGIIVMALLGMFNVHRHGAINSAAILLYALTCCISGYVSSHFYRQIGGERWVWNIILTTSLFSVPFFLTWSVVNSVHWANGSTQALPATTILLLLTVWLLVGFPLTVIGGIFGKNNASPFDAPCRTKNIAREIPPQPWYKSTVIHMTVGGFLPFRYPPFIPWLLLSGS

TTC13 (human) = TTC13 (human) (UniProt Q8NBP0); test: as above
UniProt P01837.1 = test: as above
XPO1 (human) = XPO1 (human) (UniProt O14980); test: as above
XPOT (human) = XPOT (human) (UniProt O43592); test: as above
XPOT (human), sequence (O43592 whole entry): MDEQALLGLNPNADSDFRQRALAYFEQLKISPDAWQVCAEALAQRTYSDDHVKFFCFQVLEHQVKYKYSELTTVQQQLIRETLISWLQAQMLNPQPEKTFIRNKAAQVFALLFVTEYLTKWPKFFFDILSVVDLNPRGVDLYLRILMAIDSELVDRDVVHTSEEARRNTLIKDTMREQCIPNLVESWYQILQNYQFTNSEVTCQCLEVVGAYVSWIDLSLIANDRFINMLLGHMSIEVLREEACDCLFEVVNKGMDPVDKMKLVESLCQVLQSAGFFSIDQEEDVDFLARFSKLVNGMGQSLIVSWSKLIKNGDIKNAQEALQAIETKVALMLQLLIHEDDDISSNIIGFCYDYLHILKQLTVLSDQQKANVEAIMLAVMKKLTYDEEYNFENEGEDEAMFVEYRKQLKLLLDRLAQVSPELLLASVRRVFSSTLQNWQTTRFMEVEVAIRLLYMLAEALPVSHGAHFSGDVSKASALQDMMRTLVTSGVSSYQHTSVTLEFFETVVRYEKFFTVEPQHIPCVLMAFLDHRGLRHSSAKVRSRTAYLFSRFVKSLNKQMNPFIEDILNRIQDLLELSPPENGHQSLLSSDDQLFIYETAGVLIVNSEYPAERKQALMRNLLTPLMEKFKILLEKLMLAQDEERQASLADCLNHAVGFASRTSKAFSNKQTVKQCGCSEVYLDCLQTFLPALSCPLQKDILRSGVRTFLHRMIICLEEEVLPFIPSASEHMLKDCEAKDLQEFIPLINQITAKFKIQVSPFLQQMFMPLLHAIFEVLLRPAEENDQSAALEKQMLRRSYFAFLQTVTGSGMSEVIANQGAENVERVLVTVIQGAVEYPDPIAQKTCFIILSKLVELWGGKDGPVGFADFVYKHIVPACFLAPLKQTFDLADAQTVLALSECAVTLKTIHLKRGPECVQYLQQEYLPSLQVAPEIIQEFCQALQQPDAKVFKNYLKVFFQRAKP

C1orf68 (human) = C1orf68 (human) (UniProt Q5T750); test: co-IP, anti-FLAG, lysate of cells with N-FLAG B3GNT2; mass spectrometry
HSPA8 (human) = HSPA8 (human) (UniProt P11142); test: as above
HSPA8 (human), sequence (P11142 2-646 limits assumed): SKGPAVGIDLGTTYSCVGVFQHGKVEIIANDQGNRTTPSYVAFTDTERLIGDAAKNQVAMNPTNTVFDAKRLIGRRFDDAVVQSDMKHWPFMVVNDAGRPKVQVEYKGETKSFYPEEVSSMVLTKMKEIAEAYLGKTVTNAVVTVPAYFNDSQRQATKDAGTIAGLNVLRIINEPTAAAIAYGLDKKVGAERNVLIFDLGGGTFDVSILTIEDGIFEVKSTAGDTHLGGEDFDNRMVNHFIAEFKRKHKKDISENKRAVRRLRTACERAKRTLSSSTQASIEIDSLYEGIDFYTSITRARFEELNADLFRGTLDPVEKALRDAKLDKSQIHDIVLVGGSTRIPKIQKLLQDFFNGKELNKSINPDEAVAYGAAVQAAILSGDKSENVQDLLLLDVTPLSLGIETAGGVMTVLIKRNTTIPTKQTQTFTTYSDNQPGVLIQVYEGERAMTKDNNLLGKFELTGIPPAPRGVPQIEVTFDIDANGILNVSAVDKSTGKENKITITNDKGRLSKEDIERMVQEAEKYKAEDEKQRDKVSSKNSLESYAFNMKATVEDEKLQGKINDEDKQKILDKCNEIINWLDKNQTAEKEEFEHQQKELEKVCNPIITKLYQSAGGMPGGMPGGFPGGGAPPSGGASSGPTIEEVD

RPL13 (human) = RPL13 (human) (UniProt P26373); test: as above
RPL18 (human) = RPL18 (human) (UniProt Q07020); test: as above
SAMM50 (human) = SAMM50 (human) (UniProt Q9Y512); test: as above
SAMM50 (human), sequence (Q9Y512 whole entry): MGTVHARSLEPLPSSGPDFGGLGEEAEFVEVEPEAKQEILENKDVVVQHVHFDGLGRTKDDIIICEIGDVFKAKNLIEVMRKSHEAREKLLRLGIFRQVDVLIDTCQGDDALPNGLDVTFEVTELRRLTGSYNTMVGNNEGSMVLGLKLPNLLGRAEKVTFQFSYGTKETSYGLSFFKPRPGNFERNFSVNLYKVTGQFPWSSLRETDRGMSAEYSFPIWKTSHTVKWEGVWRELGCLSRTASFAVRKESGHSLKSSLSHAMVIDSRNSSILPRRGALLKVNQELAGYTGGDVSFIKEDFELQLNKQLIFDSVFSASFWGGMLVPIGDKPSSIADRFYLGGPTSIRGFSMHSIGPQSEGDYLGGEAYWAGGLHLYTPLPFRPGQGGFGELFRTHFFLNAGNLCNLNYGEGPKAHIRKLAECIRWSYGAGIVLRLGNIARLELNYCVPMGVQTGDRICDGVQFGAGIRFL

COPA (human), sequence (P53621 whole entry): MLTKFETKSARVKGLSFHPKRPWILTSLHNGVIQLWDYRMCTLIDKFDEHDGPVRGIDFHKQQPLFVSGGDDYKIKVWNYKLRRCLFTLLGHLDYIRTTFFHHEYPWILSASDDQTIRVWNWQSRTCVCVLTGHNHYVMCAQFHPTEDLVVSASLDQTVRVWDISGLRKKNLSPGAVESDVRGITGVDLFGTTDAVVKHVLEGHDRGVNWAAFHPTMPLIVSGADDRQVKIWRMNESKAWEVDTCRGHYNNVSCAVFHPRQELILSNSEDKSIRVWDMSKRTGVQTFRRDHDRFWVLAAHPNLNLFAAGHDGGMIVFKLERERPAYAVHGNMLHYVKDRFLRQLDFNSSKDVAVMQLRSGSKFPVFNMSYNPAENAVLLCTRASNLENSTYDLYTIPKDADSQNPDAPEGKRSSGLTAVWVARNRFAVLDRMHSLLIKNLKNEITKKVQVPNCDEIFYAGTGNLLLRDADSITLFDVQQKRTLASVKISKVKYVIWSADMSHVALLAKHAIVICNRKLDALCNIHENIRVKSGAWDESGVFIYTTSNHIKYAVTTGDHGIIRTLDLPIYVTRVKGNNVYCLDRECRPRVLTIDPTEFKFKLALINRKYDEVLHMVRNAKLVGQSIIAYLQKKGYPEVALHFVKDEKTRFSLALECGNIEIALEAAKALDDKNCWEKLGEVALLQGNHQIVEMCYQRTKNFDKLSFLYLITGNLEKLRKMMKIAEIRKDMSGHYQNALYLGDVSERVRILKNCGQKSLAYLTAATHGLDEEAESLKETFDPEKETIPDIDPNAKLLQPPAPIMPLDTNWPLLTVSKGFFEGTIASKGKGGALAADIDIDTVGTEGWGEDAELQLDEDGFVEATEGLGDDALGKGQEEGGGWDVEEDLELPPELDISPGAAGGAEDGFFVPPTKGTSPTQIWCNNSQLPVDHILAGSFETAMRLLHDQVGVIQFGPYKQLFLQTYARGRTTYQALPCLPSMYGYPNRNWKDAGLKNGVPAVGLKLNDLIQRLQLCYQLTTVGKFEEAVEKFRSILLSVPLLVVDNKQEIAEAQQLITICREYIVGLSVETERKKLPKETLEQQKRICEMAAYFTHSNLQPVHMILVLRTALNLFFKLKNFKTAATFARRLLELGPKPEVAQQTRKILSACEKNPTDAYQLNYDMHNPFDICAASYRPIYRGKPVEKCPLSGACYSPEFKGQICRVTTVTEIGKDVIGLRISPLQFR
DDX3X (human), sequence (O00571 2-662 limits assumed): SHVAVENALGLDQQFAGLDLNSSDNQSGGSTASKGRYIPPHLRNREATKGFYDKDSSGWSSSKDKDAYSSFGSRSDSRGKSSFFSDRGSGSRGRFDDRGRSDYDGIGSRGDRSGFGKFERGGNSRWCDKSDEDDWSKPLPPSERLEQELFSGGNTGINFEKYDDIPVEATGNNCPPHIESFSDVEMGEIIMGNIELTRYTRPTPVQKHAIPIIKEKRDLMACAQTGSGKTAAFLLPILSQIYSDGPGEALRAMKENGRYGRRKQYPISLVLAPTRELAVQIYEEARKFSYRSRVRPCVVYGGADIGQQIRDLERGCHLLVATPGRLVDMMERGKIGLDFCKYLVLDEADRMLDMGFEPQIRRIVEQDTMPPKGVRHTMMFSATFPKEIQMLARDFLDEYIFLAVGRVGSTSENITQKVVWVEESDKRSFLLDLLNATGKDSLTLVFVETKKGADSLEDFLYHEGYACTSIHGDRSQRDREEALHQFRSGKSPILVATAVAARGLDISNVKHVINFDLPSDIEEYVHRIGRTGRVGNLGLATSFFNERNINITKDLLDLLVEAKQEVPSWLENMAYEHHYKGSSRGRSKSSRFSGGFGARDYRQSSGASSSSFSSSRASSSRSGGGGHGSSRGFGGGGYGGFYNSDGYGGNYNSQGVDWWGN

IgG control (Millipore Sigma 12-371) (antibody)
co-IP/MS count, N-term IgG (ARPC1B (human)): 2
co-IP/MS count, N-term IgG (COPA (human)): 0
co-IP/MS count, N-term IgG (CPT1A (human)): 0
co-IP/MS count, N-term IgG (DDX17 (human)): 23
co-IP/MS count, N-term IgG (DDX3X (human)): 19
co-IP/MS count, N-term IgG (HNRNPH1 (human)): 11
co-IP/MS count, N-term IgG (LUC7L3 (human)): 2
co-IP/MS count, N-term IgG (MMP14 (human)): 0
co-IP/MS count, N-term IgG (NAP1L1 (human)): 0
co-IP/MS count, N-term IgG (PLOD1 (human)): 0
co-IP/MS count, N-term IgG (PRRC2C (human)): 11
co-IP/MS count, N-term IgG (PSMA3 (human)): 0
co-IP/MS count, N-term IgG (PSMB5 (human)): 0
co-IP/MS count, N-term IgG (PUF60 (human)): 5
co-IP/MS count, N-term IgG (PURA (human)): 2
co-IP/MS count, N-term IgG (RBM14 (human)): 4
co-IP/MS count, N-term IgG (RPL6 (human)): 5
co-IP/MS count, N-term IgG (RPL7A (human)): 4
co-IP/MS count, N-term IgG (SPARC (human)): 0
co-IP/MS count, N-term IgG (TM9SF1 (human)): 0
co-IP/MS count, N-term IgG (TTC13 (human)): 0
co-IP/MS count, N-term IgG (UniProt P01837.1): 87
co-IP/MS count, N-term IgG (XPO1 (human)): 0
co-IP/MS count, N-term IgG (XPOT (human)): 0

N-terminal FLAG tagged B3GNT2 (from UniProt Q9NY97 1-397) (enzyme)
co-IP mass spectrometry count (C1orf68 (human)): 13
co-IP mass spectrometry count (HSPA8 (human)): 41
co-IP mass spectrometry count (RPL13 (human)): 15
co-IP mass spectrometry count (RPL18 (human)): 11
co-IP mass spectrometry count (SAMM50 (human)): 3

Reference: patent US20240261333A1, “NOVEL TARGETS FOR ENHANCING ANTI-TUMOR IMMUNITY” (THE BROAD INSTITUTE, INC., priority 2021, published 2024)
